Patent US20180104303A1 (UNIVERSITE DE LA ROCHELLE, published 2018)

Legend:
Experiment in all cases: cell-based or functional assay
[1] = target: T1, recombinant alpha-glucosidase from Saccharomyces cerevisiae, which is a maltase (Saccharomyces cerevisiae)
[2] = target: DPP-IV from pig kidney (pig, UniProt P22411 38-766, limits assumed)
[3] = target: T1, recombinant alpha-glucosidase from …; remark: listed apart in the source
[4] = target: T1, recombinant alpha-glucosidase from …; remark: listed apart in the source

Sequence of DPP-IV from pig kidney (P22411 38-766 limits assumed): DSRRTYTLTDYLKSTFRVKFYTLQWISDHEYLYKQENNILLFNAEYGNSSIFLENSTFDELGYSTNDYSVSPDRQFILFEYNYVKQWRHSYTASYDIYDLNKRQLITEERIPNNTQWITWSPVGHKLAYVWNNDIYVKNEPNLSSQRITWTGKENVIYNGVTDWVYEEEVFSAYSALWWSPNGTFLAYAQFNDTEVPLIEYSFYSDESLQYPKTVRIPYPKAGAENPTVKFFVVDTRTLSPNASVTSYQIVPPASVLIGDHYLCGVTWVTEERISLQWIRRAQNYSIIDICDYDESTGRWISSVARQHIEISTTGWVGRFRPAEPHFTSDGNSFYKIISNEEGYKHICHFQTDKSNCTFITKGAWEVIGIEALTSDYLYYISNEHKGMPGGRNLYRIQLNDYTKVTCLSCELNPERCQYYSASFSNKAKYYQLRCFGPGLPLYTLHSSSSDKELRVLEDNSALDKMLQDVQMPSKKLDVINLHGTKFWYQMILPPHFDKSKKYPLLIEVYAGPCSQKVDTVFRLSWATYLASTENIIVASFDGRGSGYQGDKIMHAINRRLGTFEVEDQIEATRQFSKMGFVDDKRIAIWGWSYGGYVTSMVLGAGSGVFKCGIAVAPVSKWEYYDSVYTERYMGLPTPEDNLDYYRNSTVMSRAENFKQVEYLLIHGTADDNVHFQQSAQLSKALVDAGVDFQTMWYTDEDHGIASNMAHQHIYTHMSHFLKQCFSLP

VGVAPG [VGVAPG (SEQ ID NO: 7)]
Inhibitory activity on α-glucosidase (IC50) in mg/ml [1]: 2.29 mg/mL | Inhibitory activity on α-glucosidase (IC50) in mmol/l [1]: 4.59 mmol/L | (IC50) in mmol/l, inhibition of DPP-IV [2]: 10.7 mmol/L

GPL [GPL peptide]
IC50 ratio against the AP and VAP peptides [3]: ~243 fold | Inhibitory activity on α-glucosidase (IC50) [4]: 4.82 mM | Inhibitory activity on α-glucosidase (IC50) in mg/ml [1]: 1.37 mg/mL | Inhibitory activity on α-glucosidase (IC50) in mmol/l [1]: 4.82 mmol/L | (IC50) in mmol/l, inhibition of DPP-IV [2]: 1.85 mmol/L

VAPG [VAPG (SEQ ID NO: 6)]
Inhibitory activity on α-glucosidase (IC50) in mg/ml [1]: 1.39 mg/mL | Inhibitory activity on α-glucosidase (IC50) in mmol/l [1]: 4.05 mmol/L | (IC50) in mmol/l, inhibition of DPP-IV [2]: 2.27 mmol/L

KW [KW peptide]
Inhibitory activity on α-glucosidase (IC50) [4]: 12.8 mM | Inhibitory activity on α-glucosidase (IC50) in mg/ml [1]: 4.24 mg/mL | Inhibitory activity on α-glucosidase (IC50) in mmol/l [1]: 12.8 mmol/L

LKP [LKP peptide]
IC50 ratio against the AP and VAP peptides [3]: ~355 fold | Inhibitory activity on α-glucosidase (IC50) [4]: 7.11 mM | Inhibitory activity on α-glucosidase (IC50) in mg/ml [1]: 2.53 mg/mL | Inhibitory activity on α-glucosidase (IC50) in mmol/l [1]: 7.11 mmol/L

KY [KY peptide]
Inhibitory activity on α-glucosidase (IC50) [4]: 11 mM | Inhibitory activity on α-glucosidase (IC50) in mg/ml [1]: 3.39 mg/mL | Inhibitory activity on α-glucosidase (IC50) in mmol/l [1]: 11 mmol/L

IY [IY peptide]
Inhibitory activity on α-glucosidase (IC50) [4]: 12.3 mM | Inhibitory activity on α-glucosidase (IC50) in mg/ml [1]: 3.6 mg/mL | Inhibitory activity on α-glucosidase (IC50) in mmol/l [1]: 12.3 mmol/L

AVPYQR [AVPYQR (SEQ ID NO: 5)]
Inhibitory activity on α-glucosidase (IC50) in mg/ml [1]: 2.34 mg/mL | Inhibitory activity on α-glucosidase (IC50) in mmol/l [1]: 3.19 mmol/L | (IC50) in mmol/l, inhibition of DPP-IV [2]: 5.7 mmol/L

AP [AP peptide]
IC50 (inhibition of the activity of α-glucosidase in vitro) [3]: 0.0136 mM | IC50 ratio against acarbose [3]: ~874 fold | Inhibitory activity on α-glucosidase (IC50) [4]: 0.0136 mM | Inhibitory activity on α-glucosidase (IC50) in mg/ml [1]: 0.0025 mg/mL | Inhibitory activity on α-glucosidase (IC50) in mmol/l [1]: 0.0136 mmol/L | (IC50) in mmol/l, inhibition of DPP-IV [2]: 4.78 mmol/L

VY [VY peptide]
IC50 ratio against the AP and VAP peptides [3]: ~135 fold | Inhibitory activity on α-glucosidase (IC50) [4]: 2.7 mM | Inhibitory activity on α-glucosidase (IC50) in mg/ml [1]: 0.756 mg/mL | Inhibitory activity on α-glucosidase (IC50) in mmol/l [1]: 2.7 mmol/L

VAPFPEV [VAPFPEV (SEQ ID NO: 4)]
Inhibitory activity on α-glucosidase (IC50) in mg/ml [1]: 2.03 mg/mL | Inhibitory activity on α-glucosidase (IC50) in mmol/l [1]: 2.68 mmol/L | (IC50) in mmol/l, inhibition of DPP-IV [2]: 1.18 mmol/L

VAP [VAP peptide]
IC50 (inhibition of the activity of α-glucosidase in vitro) [3]: 0.02 mM | IC50 ratio against acarbose [3]: ~595 fold | Inhibitory activity on α-glucosidase (IC50) [4]: 0.02 mM | Inhibitory activity on α-glucosidase (IC50) in mg/ml [1]: 0.0057 mg/mL | Inhibitory activity on α-glucosidase (IC50) in mmol/l [1]: 0.02 mmol/L | (IC50) in mmol/l, inhibition of DPP-IV [2]: 4.82 mmol/L

SAPLRVY [SAPLRVY (SEQ ID NO: 3)]
Inhibitory activity on α-glucosidase (IC50) in mg/ml [1]: 1.42 mg/mL | Inhibitory activity on α-glucosidase (IC50) in mmol/l [1]: 1.76 mmol/L | (IC50) in mmol/l, inhibition of DPP-IV [2]: 1.06 mmol/L

IPI [Diprotin A (IPI)]
(IC50) in mmol/l, inhibition of DPP-IV [2]: 0.0121 mmol/L
